Test results from article PMC6256979, “Screening and Improvement of an Anti-VEGF DNA Aptamer”.

B1: Vap7 (ssDNA)
DNA: ATACCAGTCTATTCAATTGCACTCTGTGGGGGTGGACGGGCCGGGTAGATAGTATGTGCAATCA
modifications: G-quadruplex
B2: V7t1 (ssDNA)
DNA: TGTGGGGGTGGACGGGCCGGGTAGA
modifications: G-quadruplex

Columns and labels:
VEGF-A121 = VEGF-A121 (Homo sapiens (Human), UniProt P15692 27-147, none (E. coli)); assay: SPR; TBSE 10 mM Tris-HCl pH 7.0, 100 mM NaCl, 0.05 mM EDTA (folded with 50 mM KCl in Fig 3), 24 C; VEGF on CM5; conditions: chain copies: 2
VEGF-A165 = VEGF-A165 (Homo sapiens (Human), UniProt P15692 27-191, N-glycosylated (Sf21)); assay: as above; conditions: chain copies: 2
Chain of VEGF-A165 (P15692 other isoform, or with tags, fused parts or gaps): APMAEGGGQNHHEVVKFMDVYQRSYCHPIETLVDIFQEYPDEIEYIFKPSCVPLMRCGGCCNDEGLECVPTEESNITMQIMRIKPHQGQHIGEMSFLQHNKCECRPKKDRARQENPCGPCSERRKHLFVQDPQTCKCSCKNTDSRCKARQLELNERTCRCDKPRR

Chain of VEGF-A121 (P15692 other isoform, or with tags, fused parts or gaps): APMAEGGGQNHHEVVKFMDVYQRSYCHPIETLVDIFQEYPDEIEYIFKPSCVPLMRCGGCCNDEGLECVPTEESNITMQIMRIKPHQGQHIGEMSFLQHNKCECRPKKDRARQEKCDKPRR

Row | Binder | Kd (VEGF-A121) | Kd (VEGF-A165)
1 | B1 | 1 nM | 20 nM
2 | B2 | 1.1 nM | 
